Values belong to the compound of their own block, whether it stands above or below them. Where no end group is shown, it is not given here.
Key:
Assay in all cases: Arrestin agonist mode
Format in all cases: cell-based
CXCR1 = target: T1, CXCR1 (Homo sapiens, UniProt P25024); conditions: read-out: RC50 (the source's name)
T1 sequence (P25024 1-350): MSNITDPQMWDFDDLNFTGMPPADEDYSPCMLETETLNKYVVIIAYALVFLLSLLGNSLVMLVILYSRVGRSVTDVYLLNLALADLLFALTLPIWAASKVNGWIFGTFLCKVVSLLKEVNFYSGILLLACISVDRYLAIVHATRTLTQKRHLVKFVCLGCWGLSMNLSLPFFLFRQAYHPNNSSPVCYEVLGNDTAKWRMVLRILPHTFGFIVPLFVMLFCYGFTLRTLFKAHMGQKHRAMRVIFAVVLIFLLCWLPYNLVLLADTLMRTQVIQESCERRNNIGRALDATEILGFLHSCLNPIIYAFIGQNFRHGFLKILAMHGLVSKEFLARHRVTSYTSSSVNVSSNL

CXCR2 = target: T2, CXCR2 (Homo sapiens, UniProt P25025); conditions: read-out: RC50 (the source's name)
T2 sequence (P25025 1-360): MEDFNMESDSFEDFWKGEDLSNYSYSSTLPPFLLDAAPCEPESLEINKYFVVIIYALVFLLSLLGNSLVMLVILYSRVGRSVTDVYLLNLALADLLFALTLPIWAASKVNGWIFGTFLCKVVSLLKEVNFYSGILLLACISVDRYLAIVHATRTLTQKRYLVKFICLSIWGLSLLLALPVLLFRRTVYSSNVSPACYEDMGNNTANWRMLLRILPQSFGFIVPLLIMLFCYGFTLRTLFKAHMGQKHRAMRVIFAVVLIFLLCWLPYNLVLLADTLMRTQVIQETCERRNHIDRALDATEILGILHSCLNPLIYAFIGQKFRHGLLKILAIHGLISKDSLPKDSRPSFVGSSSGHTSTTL

EDG3 = EDG3 (Homo sapiens, UniProt Q99500); conditions: read-out: RC50 (the source's name)
EDG1 = EDG1 (Homo sapiens, UniProt P21453); conditions: read-out: RC50 (the source's name)
EDG6 = EDG6 (Homo sapiens, UniProt O95977); conditions: read-out: RC50 (the source's name)
GPR103 = GPR103 (Homo sapiens, UniProt Q96P65); conditions: read-out: RC50 (the source's name)
CXCR5 = target: T3, CXCR5 (Homo sapiens, UniProt P32302); conditions: read-out: RC50 (the source's name)
T3 sequence (P32302 1-372): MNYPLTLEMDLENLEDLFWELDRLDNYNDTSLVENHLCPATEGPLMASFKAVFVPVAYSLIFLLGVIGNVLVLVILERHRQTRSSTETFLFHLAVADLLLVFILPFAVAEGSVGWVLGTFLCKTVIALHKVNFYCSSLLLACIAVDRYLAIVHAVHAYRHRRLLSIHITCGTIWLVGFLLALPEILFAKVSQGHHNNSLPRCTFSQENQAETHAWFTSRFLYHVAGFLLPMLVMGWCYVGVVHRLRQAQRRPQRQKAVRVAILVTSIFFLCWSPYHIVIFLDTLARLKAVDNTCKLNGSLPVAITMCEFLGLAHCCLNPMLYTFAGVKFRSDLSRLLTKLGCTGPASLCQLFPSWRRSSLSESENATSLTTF

GPR1 = target: T4, GPR1 (Homo sapiens, UniProt P46091); conditions: read-out: RC50 (the source's name)
T4 sequence (P46091 1-355): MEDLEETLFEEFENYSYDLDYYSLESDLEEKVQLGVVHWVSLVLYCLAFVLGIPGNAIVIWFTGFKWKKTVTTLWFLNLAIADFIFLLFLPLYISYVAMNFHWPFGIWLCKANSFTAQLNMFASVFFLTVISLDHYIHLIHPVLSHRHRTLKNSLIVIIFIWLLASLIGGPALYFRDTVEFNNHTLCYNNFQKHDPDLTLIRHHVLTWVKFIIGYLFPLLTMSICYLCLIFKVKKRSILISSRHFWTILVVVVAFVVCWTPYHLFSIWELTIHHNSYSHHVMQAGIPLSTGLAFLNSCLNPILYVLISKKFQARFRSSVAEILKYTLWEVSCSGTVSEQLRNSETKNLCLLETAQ

FFAR1 = FFAR1 (Homo sapiens, UniProt O14842); conditions: read-out: RC50 (the source's name)
CXCR3 = target: T5, CXCR3 (Homo sapiens, UniProt P49682); conditions: read-out: RC50 (the source's name)
T5 sequence (P49682 1-368): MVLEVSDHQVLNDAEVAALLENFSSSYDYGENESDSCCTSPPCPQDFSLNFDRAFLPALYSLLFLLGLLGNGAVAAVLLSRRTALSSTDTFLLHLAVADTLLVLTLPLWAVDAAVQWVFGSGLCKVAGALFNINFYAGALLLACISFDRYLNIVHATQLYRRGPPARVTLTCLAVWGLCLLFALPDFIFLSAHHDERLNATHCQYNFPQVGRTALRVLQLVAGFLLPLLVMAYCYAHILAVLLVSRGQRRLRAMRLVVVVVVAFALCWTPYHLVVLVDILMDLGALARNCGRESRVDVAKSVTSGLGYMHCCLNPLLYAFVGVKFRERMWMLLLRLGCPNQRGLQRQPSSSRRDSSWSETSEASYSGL

CX3CR1 = target: T6, CX3CR1 (Homo sapiens, UniProt P49238); conditions: read-out: RC50 (the source's name)
T6 sequence (P49238 1-355): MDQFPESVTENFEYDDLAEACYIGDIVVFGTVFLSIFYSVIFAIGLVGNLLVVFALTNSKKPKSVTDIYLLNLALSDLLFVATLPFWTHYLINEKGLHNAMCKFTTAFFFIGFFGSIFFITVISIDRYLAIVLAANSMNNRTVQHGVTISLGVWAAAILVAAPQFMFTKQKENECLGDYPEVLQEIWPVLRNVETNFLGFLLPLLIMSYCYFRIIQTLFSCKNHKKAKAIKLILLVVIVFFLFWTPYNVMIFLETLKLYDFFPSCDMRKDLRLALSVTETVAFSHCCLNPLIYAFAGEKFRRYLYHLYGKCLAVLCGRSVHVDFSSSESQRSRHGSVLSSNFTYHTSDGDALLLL

EBI2 = EBI2 (Homo sapiens, UniProt P32249)
CCR7 = target: T7, CCR7 (Homo sapiens, UniProt P32248); conditions: read-out: RC50 (the source's name)
T7 sequence (P32248 25-378): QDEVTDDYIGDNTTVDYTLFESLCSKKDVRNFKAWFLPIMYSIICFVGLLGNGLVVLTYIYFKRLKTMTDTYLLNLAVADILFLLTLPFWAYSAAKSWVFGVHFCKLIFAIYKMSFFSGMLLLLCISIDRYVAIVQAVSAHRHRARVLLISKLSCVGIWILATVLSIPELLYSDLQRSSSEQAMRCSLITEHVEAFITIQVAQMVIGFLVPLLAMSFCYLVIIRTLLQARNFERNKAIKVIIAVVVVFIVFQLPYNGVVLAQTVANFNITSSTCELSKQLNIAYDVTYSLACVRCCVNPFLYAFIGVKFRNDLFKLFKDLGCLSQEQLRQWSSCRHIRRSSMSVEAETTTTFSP

CRTH2 = CRTH2 (Homo sapiens, UniProt Q9Y5Y4); conditions: read-out: RC50 (the source's name)
CCR5 = CCR5 (Homo sapiens, UniProt P51681); conditions: read-out: RC50 (the source's name)
CCR1 = target: T8, CCR1 (Homo sapiens, UniProt P32246); conditions: read-out: RC50 (the source's name)
T8 sequence (P32246 1-355): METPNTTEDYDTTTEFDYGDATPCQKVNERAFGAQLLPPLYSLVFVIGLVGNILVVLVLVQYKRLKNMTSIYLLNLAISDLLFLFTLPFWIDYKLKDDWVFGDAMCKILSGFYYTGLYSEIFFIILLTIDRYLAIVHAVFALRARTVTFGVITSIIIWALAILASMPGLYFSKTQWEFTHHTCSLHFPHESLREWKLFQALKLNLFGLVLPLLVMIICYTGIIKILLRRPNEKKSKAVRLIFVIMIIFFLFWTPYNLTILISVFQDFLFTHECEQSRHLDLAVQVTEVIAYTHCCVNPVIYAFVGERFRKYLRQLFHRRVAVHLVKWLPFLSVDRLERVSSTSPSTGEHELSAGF

CCR3 = target: T9, CCR3 (Homo sapiens, UniProt P51677); conditions: read-out: RC50 (the source's name)
T9 sequence (P51677 1-355): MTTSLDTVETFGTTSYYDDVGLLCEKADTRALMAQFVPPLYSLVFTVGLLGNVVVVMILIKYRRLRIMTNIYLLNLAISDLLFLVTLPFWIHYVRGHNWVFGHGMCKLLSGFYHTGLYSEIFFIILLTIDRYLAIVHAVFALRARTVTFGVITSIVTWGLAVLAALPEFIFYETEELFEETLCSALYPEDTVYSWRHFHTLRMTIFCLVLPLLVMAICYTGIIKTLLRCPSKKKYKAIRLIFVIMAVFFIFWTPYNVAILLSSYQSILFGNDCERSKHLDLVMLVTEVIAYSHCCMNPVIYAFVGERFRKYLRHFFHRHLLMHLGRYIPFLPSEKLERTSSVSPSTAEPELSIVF

CCR6 = target: T10, CCR6 (Homo sapiens, UniProt P51684); conditions: read-out: RC50 (the source's name)
T10 sequence (P51684 1-374): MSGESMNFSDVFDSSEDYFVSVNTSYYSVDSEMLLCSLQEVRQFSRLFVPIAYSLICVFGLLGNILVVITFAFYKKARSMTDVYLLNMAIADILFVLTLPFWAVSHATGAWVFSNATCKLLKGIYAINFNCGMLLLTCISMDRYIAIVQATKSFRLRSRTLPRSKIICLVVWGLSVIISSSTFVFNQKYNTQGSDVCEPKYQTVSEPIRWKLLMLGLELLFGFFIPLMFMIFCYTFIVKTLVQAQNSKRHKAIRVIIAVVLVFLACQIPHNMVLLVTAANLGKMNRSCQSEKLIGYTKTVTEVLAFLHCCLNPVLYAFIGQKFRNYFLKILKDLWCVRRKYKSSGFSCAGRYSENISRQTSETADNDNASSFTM

CRTH2, sequence (Q9Y5Y4 whole entry): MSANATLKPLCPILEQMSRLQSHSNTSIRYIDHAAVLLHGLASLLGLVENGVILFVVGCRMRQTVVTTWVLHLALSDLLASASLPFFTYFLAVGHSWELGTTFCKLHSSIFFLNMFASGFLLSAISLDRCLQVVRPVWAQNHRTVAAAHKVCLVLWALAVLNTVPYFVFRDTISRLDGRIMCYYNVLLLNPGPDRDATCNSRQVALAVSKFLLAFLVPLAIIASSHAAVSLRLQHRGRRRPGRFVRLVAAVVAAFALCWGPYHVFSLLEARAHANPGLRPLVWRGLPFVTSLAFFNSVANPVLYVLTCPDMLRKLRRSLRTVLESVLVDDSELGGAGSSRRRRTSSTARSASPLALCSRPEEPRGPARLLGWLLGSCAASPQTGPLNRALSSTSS
CCR5, sequence (P51681 whole entry): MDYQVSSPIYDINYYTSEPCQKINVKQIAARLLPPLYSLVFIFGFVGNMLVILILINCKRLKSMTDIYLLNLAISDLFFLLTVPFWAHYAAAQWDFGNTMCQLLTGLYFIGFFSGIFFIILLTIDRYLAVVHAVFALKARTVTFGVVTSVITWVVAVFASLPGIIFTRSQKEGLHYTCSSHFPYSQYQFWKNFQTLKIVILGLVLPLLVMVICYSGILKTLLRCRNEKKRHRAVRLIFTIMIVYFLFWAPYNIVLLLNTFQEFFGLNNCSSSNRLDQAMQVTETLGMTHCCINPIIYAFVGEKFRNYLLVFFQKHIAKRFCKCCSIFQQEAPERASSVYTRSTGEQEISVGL
EDG1, sequence (P21453 whole entry): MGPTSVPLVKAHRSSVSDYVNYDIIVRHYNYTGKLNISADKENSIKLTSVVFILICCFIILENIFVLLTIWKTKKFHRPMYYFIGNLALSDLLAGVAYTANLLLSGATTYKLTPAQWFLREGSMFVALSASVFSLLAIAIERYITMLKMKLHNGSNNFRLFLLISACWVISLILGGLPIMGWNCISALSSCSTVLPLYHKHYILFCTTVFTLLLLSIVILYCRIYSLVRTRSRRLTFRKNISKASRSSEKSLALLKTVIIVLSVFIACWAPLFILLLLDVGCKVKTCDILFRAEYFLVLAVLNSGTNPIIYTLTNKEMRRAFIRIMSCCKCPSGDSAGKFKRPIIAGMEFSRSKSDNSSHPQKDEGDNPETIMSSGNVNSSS
EDG3, sequence (Q99500 whole entry): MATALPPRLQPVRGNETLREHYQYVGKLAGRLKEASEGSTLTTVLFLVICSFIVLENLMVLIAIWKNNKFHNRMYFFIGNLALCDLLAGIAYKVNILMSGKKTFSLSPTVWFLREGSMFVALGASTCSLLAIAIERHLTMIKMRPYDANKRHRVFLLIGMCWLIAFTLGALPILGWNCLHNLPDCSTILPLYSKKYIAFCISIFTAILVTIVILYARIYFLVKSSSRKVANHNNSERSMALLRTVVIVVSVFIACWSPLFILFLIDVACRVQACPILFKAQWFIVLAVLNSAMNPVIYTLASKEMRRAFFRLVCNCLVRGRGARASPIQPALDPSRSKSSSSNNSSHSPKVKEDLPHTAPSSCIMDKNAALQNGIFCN
EBI2, sequence (P32249 whole entry): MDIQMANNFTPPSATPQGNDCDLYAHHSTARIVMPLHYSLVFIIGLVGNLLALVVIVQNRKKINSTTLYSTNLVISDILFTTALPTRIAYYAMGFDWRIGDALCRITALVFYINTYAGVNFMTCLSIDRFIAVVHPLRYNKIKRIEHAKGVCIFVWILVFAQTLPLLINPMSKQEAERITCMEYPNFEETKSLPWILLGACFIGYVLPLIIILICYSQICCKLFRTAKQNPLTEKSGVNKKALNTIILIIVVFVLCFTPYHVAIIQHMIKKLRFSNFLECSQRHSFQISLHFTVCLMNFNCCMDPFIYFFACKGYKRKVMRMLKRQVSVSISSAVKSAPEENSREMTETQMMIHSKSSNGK
GPR103, sequence (Q96P65 whole entry): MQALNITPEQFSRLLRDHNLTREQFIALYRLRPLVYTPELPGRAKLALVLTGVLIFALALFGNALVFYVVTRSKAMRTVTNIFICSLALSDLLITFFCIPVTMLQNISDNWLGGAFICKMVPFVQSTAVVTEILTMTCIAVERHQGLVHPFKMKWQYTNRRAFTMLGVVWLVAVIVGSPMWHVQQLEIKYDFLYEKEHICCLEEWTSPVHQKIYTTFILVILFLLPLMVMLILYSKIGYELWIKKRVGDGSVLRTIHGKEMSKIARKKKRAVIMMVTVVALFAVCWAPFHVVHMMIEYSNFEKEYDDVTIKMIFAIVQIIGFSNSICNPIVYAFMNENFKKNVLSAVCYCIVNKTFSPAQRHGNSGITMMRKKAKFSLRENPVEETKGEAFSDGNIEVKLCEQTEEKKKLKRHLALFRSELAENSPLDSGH
FFAR1, sequence (O14842 whole entry): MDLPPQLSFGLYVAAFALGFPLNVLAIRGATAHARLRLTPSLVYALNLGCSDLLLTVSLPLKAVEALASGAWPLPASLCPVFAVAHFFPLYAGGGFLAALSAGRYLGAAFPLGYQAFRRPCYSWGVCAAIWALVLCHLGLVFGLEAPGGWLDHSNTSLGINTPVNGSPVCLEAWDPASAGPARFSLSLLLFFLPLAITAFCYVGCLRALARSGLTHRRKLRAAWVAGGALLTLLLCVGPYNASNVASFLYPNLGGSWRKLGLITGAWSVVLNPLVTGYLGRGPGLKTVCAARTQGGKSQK
EDG6, sequence (O95977 whole entry): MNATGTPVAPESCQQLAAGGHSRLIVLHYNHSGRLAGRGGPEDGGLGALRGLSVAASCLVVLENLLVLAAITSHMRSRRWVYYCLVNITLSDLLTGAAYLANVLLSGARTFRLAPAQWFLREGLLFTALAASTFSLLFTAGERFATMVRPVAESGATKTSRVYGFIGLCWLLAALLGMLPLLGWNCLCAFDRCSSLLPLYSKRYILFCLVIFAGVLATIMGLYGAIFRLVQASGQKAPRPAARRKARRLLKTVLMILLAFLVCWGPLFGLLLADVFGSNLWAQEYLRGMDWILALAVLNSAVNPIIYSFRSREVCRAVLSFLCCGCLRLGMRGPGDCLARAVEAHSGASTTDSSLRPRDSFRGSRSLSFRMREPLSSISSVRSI

Compound: CXCL8: control agonist
EC50 (CXCR1): 2.8 nM
EC50 (CXCR2): 0.304 nM

Compound: CCCCCCCCCCCCC/C=C/[C@@H](O)[C@@H](N)COP(=O)(O)O [S-1-P]
EC50 (EDG3): 10.6 nM
EC50 (EDG1): 19 nM
EC50 (EDG6): 30.5 nM

Compound: CXCL13: control agonist
EC50 (CXCR5): 21 nM

Compound: Chemerin: control agonist
EC50 (GPR1): 2.26 nM

Compound: CXCL11: control agonist
EC50 (CXCR3): 12 nM

Compound: Fractalkine: control agonist
EC50 (CX3CR1): 0.444 nM

Compound: C[C@H](CCCC(C)(C)O)[C@H]1CC[C@H]2[C@@H]3[C@H](O)C=C4C[C@@H](O)CC[C@]4(C)[C@H]3CC[C@]12C [7a,25-Dihydroxycholesterol]
EC50 (EBI2): 3.63 nM

Compound: CCL19: control agonist
EC50 (CCR7): 5.65 nM

Compound: CCL3: control agonist
EC50 (CCR5): 7.55 nM
EC50 (CCR1): 1.04 nM

Compound: CCL13: control agonist
EC50 (CCR3): 40.6 nM

Compound: CCL20: control agonist
EC50 (CCR6): 2.95 nM

Next, values leading:

EC50 (GPR103): 10 nM
Compound: TSGPLGNLAEELNGYSRKKGGFSFRF-NH2 (C-terminus assumed) [QRFP-26]

EC50 (FFAR1): 959 nM
Compound: O=C(O)CCc1ccc(NCc2cccc(Oc3ccccc3)c2)cc1 [GW9508]

EC50 (CRTH2): 3.34 nM
Compound: CCCCC[C@H](O)/C=C/[C@H]1C(=O)C[C@H](O)[C@@H]1C/C=C\CCCC(=O)O [PGD2]

Source: patent publication US20260184748A1, “COMPOSITIONS COMPRISING OCTADECANEUROPEPTIDES (ODN) AND SYNTHETIC DERIVATIVES THEREOF AND METHODS OF USE FOR MODULATION OF FOOD INTAKE, OBESITY, BODY WEIGHT, NAUSEA, AND EMESIS” (The Trustees of the University of Pennsylvania, priority 2022, published 2026)
